Results from publication PMC6593147, “COP1 regulates the stability of CAM7 to promote photomorphogenic growth” (Plant Direct, 2019).

B1: GST‐HY5 (natural protein, Arabidopsis thaliana, UniProt O24646 1-168, looked up)
chain: MQEQATSSLAASSLPSSSERSSSSAPHLEIKEGIESDEEIRRVPEFGGEAVGKETSGRESGSATGQERTQATVGESQRKRGRTPAEKENKRLKRLLRNRVSAQQARERKKAYLSELENRVKDLENKNSELEERLSTLQNENQMLRHILKNTTGNKRGGGGGSNADASL
notes: Positive control of the pull-down; also called ELONGATED HYPOCOTYL5; source: E. coli BL21 (DE3), purified by Glutathione sepharose 4B beads
B2: COP1‐His (natural protein)
chain: MEEISTDPVVPAVKPDPRTSSVGEGANRHENDDGGSGGSEIGAPDLDKDLLCPICMQIIKDAFLTACGHSFCYMCIITHLRNKSDCPCCSQHLTNNQLYPNFLLDKLLKKTSARHVSKTASPLDQFREALQRGCDVSIKEVDNLLTLLAERKRKMEQEEAERNMQILLDFLHCLRKQKVDELNEVQTDLQYIKEDINAVERHRIDLYRARDRYSVKLRMLGDDPSTRNAWPHEKNQIGFNSNSLSIRGGNFVGNYQNKKVEGKAQGSSHGLPKKDALSGSDSQSLNQSTVSMARKKRIHAQFNDLQECYLQKRRQLADQPNSKQENDKSVVRREGYSNGLADFQSVLTTFTRYSRLRVIAEIRHGDIFHSANIVSSIEFDRDDELFATAGVSRCIKVFDFSSVVNEPADMQCPIVEMSTRSKLSCLSWNKHEKNHIASSDYEGIVTVWDVTTRQSLMEYEEHEKRAWSVDFSRTEPSMLVSGSDDCKVKVWCTRQEASVINIDMKANICCVKYNPGSSNYIAVGSADHHIHYYDLRNISQPLHVFSGHKKAVSYVKFLSNNELASASTDSTLRLWDVKDNLPVRTFRGHTNEKNFVGLTVNSEYLACGSETNEVYVYHKEITRPVTSHRFGSPDMDDAEEEAGSYFISAVCWKSDSPTMLTANSQGTIKVLVLAA
notes: COP1 (CONSTITUTIVELY PHOTOMORPHOGENIC 1) E3 ubiquitin ligase, Arabidopsis thaliana, full-length CDS cloned into pET-20b(+); also called COP1‐6His; source: E. coli BL21 (DE3), purified by Ni‐NTA Agarose beads; not shown: His6, C-terminal, kept

What was measured:
COP1‐His = target: B2; assay: pull-down; 2 μg COP1‐His bound to Ni‐NTA beads; GST fusions or GST added in an equimolar ratio, overnight at 4°C; 50 mM Tris‐Cl pH 7.5, 100 mM NaCl, 0.2% glycerol, 0.1% triton, 1 mM EDTA, 0.1% NP‐40; anti‐GST immunoblot; conditions: both partners purified
GST‐CAM7 = target: T1, GST‐CAM7 (Arabidopsis thaliana, UniProt P59220 1-149); assay: as above; conditions: both partners purified
T1 construct: Vector pGEX-4T2; also called Calmodulin7; CAM7/ZBF3; source: E. coli BL21 (DE3), purified by Glutathione sepharose 4B beads

Row | binding result (COP1‐His) | binding result (GST‐CAM7) | Binder
1 | binds | – | B1
2 | – | binds | B2
